The values below come from the supplement of paper PMC9170038.

The subject of this series is MS2 coat protein. Kind of series: apparent KD of MS2 coat protein; designed switch direction (-1 OFF switch, 1 ON switch): -1; higher = weaker reporter binding. In a few lines:
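Designed RNA switches were transcribed on Illumina chips by stalled E. coli RNA polymerase and titrated with SNAP-549-labelled MS2 coat protein from 0.7 or 1.5 nM, doubling to 3 µM. Step length ran from 0.8–1.5 h at the lowest concentration to 10–20 min at the highest. The apparent KD is the median over clusters for each design, from curve-fitted normalised cluster fluorescence.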

Setting [1] is: Eterna round: R95, input ligand: microRNA oligo, concentration not stated.
The mark [2] stands for this setting: input ligand: microRNA oligo, concentration not stated.
The mark [3] stands for this setting: Eterna round: R95, input ligand: FMN 200 uM.
Where [4] appears, read: Eterna round: R95, input ligand: none.

As to “UUAUUAAGUGUGAGGAUAUGCUGGUCCUUGGAUCAGCAGAAGGCACAUGAGGAUCACCCAUGUACAUUAUUUUA [Mat - Exclusion 4 - JL Mod - D28] (puzzle: Brourd's mod of Exclusion 4)”, the “apparent KD of MS2 coat protein” value under setting [1] amounted to 31.6 nM.

Regarding “UUAUUACAAGCAAGAUCCCACAUGAGGAUCACCCAUGUGCUCGUCUUAUAAGGUACAGUGACGAAAGUCACAGUACC [Sensor 3, v1 - 0] (Eterna round: R96, puzzle: Sensor v3, turn-off variant 1)”, the “apparent KD of MS2 coat protein” value reads like this: (input ligand: FMN 200 uM) 23.1 nM; under setting [2], 369 nM; (input ligand: none) 25.9 nM.

Consider “UUAUUACAAGCAAGAUCCCACAUGAGGAUCACCCAUGUGCUCGUCUUAUAAGGUACAGUGACGAAAGUCACAGUACC [Sensor 3, v1 - 0] (puzzle: Sensor v3, turn-off variant 1)”, for which the “apparent KD of MS2 coat protein” value runs as follows: under setting [3], 29.4 nM; under setting [1], 795 nM; under setting [4], 22.3 nM.

For “UUAUUAUAUGUAGGAUAUGCAUAUUAUUAUUAUGCAGAAGGACAUGAGGAUCACCCAUGUAUAUUAUUGUUAUAUAUUAUAUAU [Title] (Eterna round: R96, puzzle: Exclusion NG 1)”, the “apparent KD of MS2 coat protein” value under setting [2] turned out to be 21 nM.

Consider “UUAUUGUGAGGAUAUCCAAUAUAUGACAUGAGGAUCACCCAUGUUUCCACUCGUACCUCCGGAGAAGGCACUUAUA [Ex5 #47] (Eterna round: R97, puzzle: Exclusion 5)”, for which the “apparent KD of MS2 coat protein” value by setting is: (input ligand: FMN 200 uM) 28.6 nM; (input ligand: none) 32.3 nM.

Regarding “UUCACAUGGACAUAAGAUCACAUGAGGAUCACCCAUGUGAAUAACAAGCUUUUUGUUCGUCUUAUGUCCAAUAAUAU [Stov1/14-B3] (Eterna round: R97, puzzle: Sensor, turn-off variant 1)”, the “apparent KD of MS2 coat protein” value (input ligand: FMN 200 uM) was found to be 13.9 nM and the “apparent KD of MS2 coat protein” value (input ligand: none) stood at 12.2 nM.

As for “UUCAUGUGAGGAUAUAGUACUUCUUCUAUUAUUAUUGAGUACUAGAAGGCACAUGAGGAUCACCCAUGUAGUAC [Ex4 - 3 - 43] (Eterna round: R96, puzzle: Exclusion 4)”, the “apparent KD of MS2 coat protein” value came out at 21.8 nM (input ligand: FMN 200 uM), 22.1 nM under setting [2] and 39.1 nM (input ligand: none).

Consider “UUCAUGUGAGGAUAUAGUACUUCUUCUAUUAUUAUUGAGUACUAGAAGGCACAUGAGGAUCACCCAUGUAGUAC [Ex4 - 3 - 43] (puzzle: Exclusion 4)”, for which, under setting [1], the “apparent KD of MS2 coat protein” value amounted to 39.1 nM.

For the sequence “UUCAUGUUAGGAUAUUCCGCUGCAGAGAAAGAGUGCAGAAUGAAGAAGGGACAUGAGGAUCACCCAUGUUCCAA [EX4 A.8] (Eterna round: R97, puzzle: Exclusion 4)”, the “apparent KD of MS2 coat protein” value runs as follows: (input ligand: FMN 200 uM) 19.5 nM; (input ligand: none) 15.5 nM.

Turning to “UUCCAACGAGGAUAUCGAUGGUGGAACAUGAGGAUCACCCAUGUAUGAGAUAGUGUAGUUCGAGAAGGCGUUCAGU [JR_E5_Sub055] (puzzle: Exclusion 5)”, the “apparent KD of MS2 coat protein” value under setting [1] turned out to be 41.9 nM.

As to “UUCCCGCGCGUGAGGAUAUGCUGAUCCCAGGAUUAGCAGAAGGCACAUGAGGAUCACCCAUGUCCAACUUGUCU [LRO-BmodExc4-14- Bluer = mod of Colors by Tatyana Zabanova] (Eterna round: R97, puzzle: Brourd's mod of Exclusion 4)”, the “apparent KD of MS2 coat protein” value runs as follows: (input ligand: FMN 200 uM) 38.5 nM; (input ligand: none) 31.6 nM.

In the case of “UUCCGACAUGAGGAUCACCCAUGUAAGGAUAUGCACUAGAGGGCAAACCCUCUUAACGGCAGAAGGUGCAGGGA [Qudile] (Eterna round: R97, puzzle: Exclusion 1)”, the “apparent KD of MS2 coat protein” value runs as follows: (input ligand: FMN 200 uM) 115 nM; (input ligand: none) 15 nM.

As to “UUCCUCACUUCUUUGUCUCACAUGAGGAUCACCCAUGUAAUAUAGGAUAUGCUUAGUAUUUAUAUGCAGAAGGAUAUUAGUAUU [JR_ExcNG3_Sub084] (Eterna round: R96, puzzle: Exclusion NG 3)”, the “apparent KD of MS2 coat protein” value (input ligand: FMN 200 uM) is 157 nM, the “apparent KD of MS2 coat protein” value under setting [2] stood at 39.8 nM and the “apparent KD of MS2 coat protein” value (input ligand: none) turned out to be 55.5 nM.

“UUCCUGUCAGGAUAUGACUAGAUGCACGUUAGUGUGUUUACUUAGAAGGGACAUGAGGAUCACCCAUGUAUUCC [Bring Us a Shrubbery-15] (puzzle: Exclusion 4)”: the “apparent KD of MS2 coat protein” value under setting [1] was found to be 25.1 nM.

Regarding “UUCGUGCAGCUUUGCUGUACGCGUACAUGAGGAUCACCCAUGUAGGAUAUGGUAGGCUUUGCUUACUAGAAGGAUAUAGUGAUC [JL EXNG3 1.31] (Eterna round: R96, puzzle: Exclusion NG 3)”, the “apparent KD of MS2 coat protein” value under setting [2] turned out to be 138 nM.

As to “UUCGUGCUGCUUUGCUGUACGAGUACAUGAGGAUCACCCAUGUAGGAUAUGGUACGCUUUGCGUGCUAGAAGGAUAUGUGUUGC [salish99_ExNG3_r04_506] (Eterna round: R96, puzzle: Exclusion NG 3)”, the “apparent KD of MS2 coat protein” value was 24.6 nM (input ligand: FMN 200 uM), 16.9 nM under setting [2] and 24 nM (input ligand: none).

On to “UUCUUACGAGGAUAUCGAUGGUGGAACAUGAGGAUCACCCAUGUAUGAGAUAUUGUAUUUCGAGAAGGCGUUCAGU [JR_E5_Sub058] (puzzle: Exclusion 5)”, for which, under setting [1], the “apparent KD of MS2 coat protein” value is 51.6 nM.

Take “UUCUUUACACGAGGAUAUCAUACAUGAGGAUCACCCAUGUUGCUUUGUCUGUUUUUAUGUAUUAUUGAGAAGGCGUUUUUCUUU [JR_ExcNG2_Sub076] (Eterna round: R96, puzzle: Exclusion NG 2)”: the “apparent KD of MS2 coat protein” value amounted to 21.9 nM (input ligand: FMN 200 uM), 19.7 nM under setting [2] and 23.7 nM (input ligand: none).

“UUCUUUGUUGUGAGGAUAUCGUAUUCUUUUUGUUACGAGAAGGCACAUGAGGAUCACCCAUGUUUCUUGAUGUU [JR_BMOE4_Sub068] (puzzle: Brourd's mod of Exclusion 4)”: under setting [1], the “apparent KD of MS2 coat protein” value stood at 16.7 nM.

As to “UUGAAGUAAGGAUAUACAUGAGGAUCACCCAUGUGGAGGAAGGUGAUGGGAGUAGGUAGUAGAAGGUACGAGGA [JR_Exclu3_Sub063] (puzzle: Exclusion 3)”, the “apparent KD of MS2 coat protein” value was 124 nM under setting [3], 100 nM under setting [1] and 220 nM under setting [4].

As to “UUGAGCAGACGGAGAUCCAACAUGAGGAUCACCCAUGUCUCAUAAGCUUUUUGUUCAUCUUAUUGUACCUUGGUGCU [Mat - Sensor v3 - turn-off var 1 - JL Mod - D23] (puzzle: Sensor v3, turn-off variant 1)”, the “apparent KD of MS2 coat protein” value came to 47 nM under setting [3], 8.53 nM under setting [1] and 40.5 nM under setting [4].

For “UUGGAGAUAGGAUAUACGAGGAGAGUUGAGGGAACGCGAUGACAUGAGGAUCACCCAUGUAGAAGGAUCAGGAG [JR_Exclu2_Sub070] (puzzle: Exclusion 2)”, the “apparent KD of MS2 coat protein” value runs as follows: under setting [3], 28.2 nM; under setting [1], 36 nM; under setting [4], 40.3 nM.

With “UUGGUGUCAGGAUAUGCUUAAUGUAUUUUAUUAUAAUAUAUACAUGAGGAUCACCCAUGUAGAAGGGACAUUGU [LRO-Excl2-08-Fireball XL5] (Eterna round: R97, puzzle: Exclusion 2)”, the “apparent KD of MS2 coat protein” value is 125 nM (input ligand: FMN 200 uM) and 154 nM (input ligand: none).

“UUGGUUAUCUAUGGAAGUAACAUGAGGAUCACCCAUGUAUGUCUUGUUUUUUGUUCGUCAUAGGCCUUUUGUUUGGA [JR_SV3TOV1_Sub023] (puzzle: Sensor v3, turn-off variant 1)”: the “apparent KD of MS2 coat protein” value runs as follows: under setting [3], 24.9 nM; under setting [1], 24.9 nM; under setting [4], 30.3 nM.

For the sequence “UUGGUUGUGGUAGGAUAUCCGUUGGAAACCGUCGGAGAAGGACCACAGUCACUGGGUCUUUGUCUGGUGGAGUGGAAGAACCAU [pwkr exNG1 F6.20] (Eterna round: R96, puzzle: Exclusion NG 1)”, the “apparent KD of MS2 coat protein” value by setting is: (input ligand: FMN 200 uM) 283 nM; under setting [2], 157 nM; (input ligand: none) 218 nM.

As to “UUGUACAGAGGAUAUACAUGAGGAUCACCCAUGUGUUUCAGCUAGGAGACUAGCGAAAGUAGAAGGCUGUACUC [salish99_ex3_r4_015] (Eterna round: R97, puzzle: Exclusion 3)”, the “apparent KD of MS2 coat protein” value is, setting by setting: (input ligand: FMN 200 uM) 23.9 nM; (input ligand: none) 11.1 nM.

With “UUGUAGGGAGGAUAUCAGAAGCUCCACAUGAGGAUCACCCAUGUAGCCGCUGCUGGAUUCUGAGAAGGCUUGGGUU [Eternabot (L2) Solution 8] (Eterna round: R97, puzzle: Exclusion 5)”, the “apparent KD of MS2 coat protein” value stood at 58.8 nM (input ligand: FMN 200 uM) and 58.3 nM (input ligand: none).

For “UUGUGCACGCUGCGAUCCUACAUGAGGAUCACCCAUGUGGUCUGGUGGCGUGGGUCACCGGACUUGGCUCGUCUUGC [salish99_S_TOV1_R5_073] (Eterna round: R97, puzzle: Sensor, turn-off variant 1)”, the “apparent KD of MS2 coat protein” value (input ligand: FMN 200 uM) stood at 28.8 nM and the “apparent KD of MS2 coat protein” value (input ligand: none) is 28.6 nM.

Regarding “UUGUUAUAUGAAGGAUAUACUUAACAUGAGGAUCACCCAUGUGGUGUUGUGAGUGAGUGAGUUUAGUAGAAGGUCAAGUAUUUU [JMF's solution 52] (Eterna round: R96, puzzle: Exclusion NG 2)”, the “apparent KD of MS2 coat protein” value reads like this: (input ligand: FMN 200 uM) 509 nM; under setting [2], 368 nM; (input ligand: none) 377 nM.

Turning to “UUUAAAUGAGGAUAUAGGAUCUUAGACAUGAGGAUCACCCAUGUGAAAUCAGACCUAGUCCUAGAAGGCGUAUGAC [Eternabot (L1) Solution 100] (Eterna round: R97, puzzle: Exclusion 5)”, the “apparent KD of MS2 coat protein” value runs as follows: (input ligand: FMN 200 uM) 13.5 nM; (input ligand: none) 12.4 nM.

Turning to “UUUAAUCAUGUAGGAUAUGCGUGGCGAAGCUAUGCAGAAGGACAUGAGGAUCACCCAUGUUCUAGCGUCUGCGUACAGAUGCGG [13th something] (Eterna round: R96, puzzle: Exclusion NG 1)”, the “apparent KD of MS2 coat protein” value runs as follows: (input ligand: FMN 200 uM) 229 nM; under setting [2], 35.3 nM; (input ligand: none) 39.9 nM.
